In article PMC4521584 one finds Km and kcat data, which are given here for 2 proteins.

Substrate in the data set: Nc1ncnc2c1ncn2[C@@H]1O[C@H](COP(=O)(O)OP(=O)(O)OP(=O)(O)O)[C@@H](O)[C@H]1O
The data set is described as follows: ATPase assay coupled to NADH oxidation. It is filed as biochemical, Escherichia coli. The following applies: 5 μM MutS, 3.125-500 μM ATP.

Substitutions are numbered along the chain they refer to. In names and notes the source's numbering stands.

Usually Km stands for the concentration of substrate that gives half-maximal velocity. The term kcat denotes the maximal rate divided by the concentration of active sites.

B1: WT MutS (Escherichia coli K-12) (protein)
chain: MSAIENFDAHTPMMQQYLRLKAQHPEILLFYRMGDFYELFYDDAKRASQLLDISLTKRGASAGEPIPMAGIPYHAVENYLAKLVNQGESVAICEQIGDPATSKGPVERKVVRIVTPGTISDEALLQERQDNLLAAIWQDSKGFGYATLDISSGRFRLSEPADRETMAAELQRTNPAELLYAEDFAEMSLIEGRRGLRRRPLWEFEIDTARQQLNLQFGTRDLVGFGVENAPRGLCAAGCLLQYAKDTQRTTLPHIRSITMEREQDSIIMDAATRRNLEITQNLAGGAENTLASVLDCTVTPMGSRMLKRWLHMPVRDTRVLLERQQTIGALQDFTAGLQPVLRQVGDLERILARLALRTARPRDLARMRHAFQQLPELRAQLETVDSAPVQALREKMGEFAELRDLLERAIIDTPPVLVRDGGVIASGYNEELDEWRALADGATDYLERLEVRERERTGLDTLKVGFNAVHGYYIQISRGQSHLAPINYMRRQTLKNAERYIIPELKEYEDKVLTSKGKALALEKQLYEELFDLLLPHLEALQQSASALAELDVLVNLAERAYTLNYTCPTFIDKPGIRITEGRHPVVEQVLNEPFIANPLNLSPQRRMLIITGPNMGGKSTYMRQTALIALMAYIGSYVPAQKVEIGPIDRIFTRVGAADDLASGRSTFMVEMTETANILHNATEYSLVLMDEIGRGTSTYDGLSLAWACAENLANKIKALTLFATHYFELTQLPEKMEGVANVHLDALEHGDTIAFMHSVQDGAASKSYGLAVAALAGVPKEVIKRARQKLRELESISPNAAATQVDGTQMSLLSVPEETSPAVEALENLDPDSLTPRQALEWIYRLKSLV
notes: full-length MutS from mutS gene in pET-3D, recombinant, purified; homodimer (can form tetramers)
Consider B1, for which the Km came out at 8.1 ± 0.7 µM and the kcat is 0.138 ± 0.0033 s⁻¹.

B2: WT MutS (Escherichia coli K-12; I597A/M759D/P595A) (protein)
chain: B1 chain with P595A, I597A, M759D
notes: as for B1
As for B2, the Km amounted to 9.5 ± 1 µM and the turnover number (kcat) is 0.0633 ± 0.0017 s⁻¹.
